The values below come from patent publication US20120237518A1 (Kyowa Kirin, published 2012).

Changes are numbered by the printed parent chain.

In assay [1] the target is T1, Mutant A, Trop-2 extracellular region lacking only domain I, fused to FLAG tag and Fc (human).
T1 construct: Expressed in HEK293F
The experiment in a line: Western blot, cAR47A6.4.2 as primary antibody, Mutant A in lane 2, non-reducing and reducing SDS-PAGE [b]. The procedure:
(§1) Each protein of Trop-2/FLAG/Fc, Mutant A, Mutant B, or Mutant C prepared in this Example 2 was electrophoresed under reducing condition (treatment of samples in the presence of 10 mmol/l DTT at 95° C. for 5 minutes) or non-reducing condition (treatment of samples in the absence of DTT at room temperature for 10 minutes) by an SDS-PAGE method. The proteins in the gel were transferred to polyvinylidene difluoride (PVDF) membrane at 200 mA for 1 hour using a semi-dry method.
(§2) After the blocking of the PVDF membrane was carried out using PBS containing 5% BSA at room temperature for 1 hour, the PVDF membrane was soaked in the primary antibody solution which was prepared with TBST [an aqueous solution which was prepared by diluting Tris buffered saline (10× concentration) (pH 7.4) manufactured by Nakarai Tesque Inc.) ten-fold and further adding 0.1% concentration of 0.05% polyoxyethylene (20) sorbitan monolaurate (manufactured by Wako Pure Chemical Industries, Ltd., equivalent to ICI Inc.'s trademark Tween 20)] comprising 0.1% BSA to react for 1 hour at room temperature or overnight at 4° C.
(§3) Using the imaging system LAS4000 mini (manufactured by Fujifilm), the luminescence images were obtained. […]

Assay [2] addresses T2, Mutant B, Trop-2 extracellular region lacking domain I and domain II, fused to FLAG tag and Fc (human).
T2 construct: Expressed in HEK293F
The assay is described as follows: Western blot, cAR47A6.4.2 as primary antibody, Mutant B in lane 3, non-reducing and reducing SDS-PAGE [b]. The procedure:
as §1, §2, §3

For assay [3], the target named is T3, Trop-2/FLAG/Fc, fusion protein of Trop-2 extracellular region, FLAG tag and Fc (human).
T3 construct: Expressed in HEK293F; The encoding DNA carries a secretion signal
The experiment in a line: Western blot, cAR47A6.4.2 as primary antibody, Trop-2/FLAG/Fc in lane 1, non-reducing and reducing SDS-PAGE [b]. How it is done:
as §1, §2, §3
(In general: A western blot detects proteins with antibodies after separation by electrophoresis.)

Assay [4] has as its target T4, recombinant human Trop-2/Fc/His fusion protein (manufactured by R&D) (human, UniProt P09758 27-274, limits assumed).
T4 construct: Bought reagent; also called Trop-2/Fc/His chimeric protein; recombinant Trop-2
T4 sequence: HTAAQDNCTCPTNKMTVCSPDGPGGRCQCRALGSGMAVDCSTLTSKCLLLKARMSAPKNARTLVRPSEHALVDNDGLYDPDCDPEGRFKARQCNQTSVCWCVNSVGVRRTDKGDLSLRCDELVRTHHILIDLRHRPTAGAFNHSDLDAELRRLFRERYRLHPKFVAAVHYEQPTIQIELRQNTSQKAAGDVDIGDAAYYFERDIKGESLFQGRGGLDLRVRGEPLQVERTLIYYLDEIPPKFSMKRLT
The assay is described as follows: competition binding ELISA on immobilised Trop-2/Fc/His; cAR47A6.4.2 varied, competed antibody MOv16 fixed at 0.3 µg/ml [b]. The procedure:
(§4) Into a 96-well ELISA plate (manufactured by Greiner), 2 μg/ml of a recombinant human Trop-2/Fc/His chimeric protein (manufactured by R&D) was dispensed at 50 μl/well, and allowed to stand at 4° C. overnight for immobilization. After washing the plate with PBS, BSA-PBS was added thereto at 100 μl/well and allowed to stand at room temperature for 1 hour for blocking the active groups.
(§5) After washing the plate with Tween-PBS, a peroxidase-labeled rabbit anti-human IgG antibody (manufactured by American Qualex) was added at 50 μl/well as the second antibody and allowed to stand at room temperature for 1 hour. After washing the plate with Tween-PBS, the ABTS [2,2-Azino-bis(3-Ethyl benzothiazol-6-Sulfonic Acid)ammonium)] substrate solution [1 mmol/l ABTS, 0.1 mol/l citric acid buffer (pH 4.2), 0.1% H₂O₂] was added at 50 μl/well for color development, and the chromogenic reaction was stopped by adding a 5% SDS (Sodium lauryl sulfate) solution at 50 μl/well. Thereafter, the value of the absorbance of OD415 nm was measured by a plate reader Emax (manufactured by Molecular Devices, LLC.).
(In general: In an ELISA, binding on a coated surface is turned into a signal by an enzyme label.)

Assay [5] concerns the target T4, recombinant human Trop-2/Fc/His fusion …. The assay is described as follows: competition binding ELISA on immobilised Trop-2/Fc/His; cAR47A6.4.2 varied, competed antibody YY-01 fixed at 0.3 µg/ml [d]. How it is done: as §4, §5
For assay [6] the target is unchanged. The experiment in a line: SPR (Biacore T100), Trop-2/Fc/His captured by Tetra-His antibody, antibody as analyte, Bivalent Analyte model, mean of duplicates. How it is done:
(§6) All the operations described below were carried out using Biacore T100 (manufactured by GE Healthcare Bio-sciences). Tetra-His antibody (manufactured by Qiagen) was immobilized so as to be 12,000 RU (resonance unit) on the CM5 sensor chip (manufactured by GE Healthcare Bio-sciences) using Amine Coupling Kit (manufactured by GE Healthcare Bio-sciences). After recombinant Trop-2/Fc/His fusion proteins (manufactured by R&D) were allowed to be captured on the sensor chip, anti-Trop-2 antibodies which were diluted in five-fold steps, starting from a concentration of 5,000 ng/ml were flowed at 30 μL/min, followed by obtaining sensorgrams at each concentration.
(§7) Using the software for analysis accompanied with the equipment, the results were analyzed based on Bivalent Analyte model to obtain the binding rate constant and the dissociation rate constant for binding of each antibody to a recombinant human Trop-2/Fc/His fusion protein.
(1) Binding Activity of Anti-Trop-2 Human Chimeric Antibody to Recombinant Human Trop-2 using Biacore In the same manner described in Example 3, the affinity of KM4591 and cAR47A6.4.2-P to human Trop-2/Fc/His fusion proteins (manufactured by R&D) were measured. ka, kd, and KD (kd/ka) of each antibody are shown in Table 5 (the mean values of duplicate experiments).
Background: Surface plasmon resonance follows binding to a sensor surface in real time, without labels.

Assay [7] addresses T3, Trop-2/FLAG/Fc, fusion protein of …. The assay is described as follows: Western blot, KM4590 as primary antibody, Trop-2/FLAG/Fc in lane 1, non-reducing and reducing SDS-PAGE [a]. The procedure: as §1, §2, §3
Assay [8] concerns the target T4, recombinant human Trop-2/Fc/His fusion …. The experiment in a line: SPR (Biacore T100), Trop-2/Fc/His captured by Tetra-His antibody, antibody as analyte, Bivalent Analyte model, mean of duplicates. The procedure: as §6, §7
(§8) In the same manner described in Example 3(2), the affinity of KM4591 and six kinds of KM4097 humanized antibodies (HV0LV0, HV3aLV0, HV4LV0, HV5LV0, HV10LV2 and HV10LV4) obtained in Example 8 to human Trop-2/Fc/His fusion proteins (manufactured by R&D) were evaluated.
This is another data set of the same source.

Assay [9] shares this target. The experiment in a line: SPR (Biacore T100) on captured Trop-2/Fc/His; summary sentence of Table 6. The procedure: as §6, §7, §8
Assay [10] shares this target. The assay is described as follows: SPR (Biacore T100), Trop-2/Fc/His captured by Tetra-His antibody on CM5 chip, antibody as analyte, Bivalent Analyte model, mean of duplicates. The procedure:
as §6, §7

T2 sequence (chain, as listed by the source mutant limits assumed): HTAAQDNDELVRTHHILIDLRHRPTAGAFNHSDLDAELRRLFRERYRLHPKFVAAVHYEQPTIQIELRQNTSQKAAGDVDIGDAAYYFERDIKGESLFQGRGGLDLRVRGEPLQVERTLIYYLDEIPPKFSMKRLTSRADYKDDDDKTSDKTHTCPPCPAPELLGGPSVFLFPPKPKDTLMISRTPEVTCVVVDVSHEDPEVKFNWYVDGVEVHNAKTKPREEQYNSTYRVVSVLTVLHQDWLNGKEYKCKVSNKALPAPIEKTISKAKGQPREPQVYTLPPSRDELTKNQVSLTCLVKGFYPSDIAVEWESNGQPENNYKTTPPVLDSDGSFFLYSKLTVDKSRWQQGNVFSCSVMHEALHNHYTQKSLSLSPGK
T1 sequence (chain, as listed by the source mutant limits assumed): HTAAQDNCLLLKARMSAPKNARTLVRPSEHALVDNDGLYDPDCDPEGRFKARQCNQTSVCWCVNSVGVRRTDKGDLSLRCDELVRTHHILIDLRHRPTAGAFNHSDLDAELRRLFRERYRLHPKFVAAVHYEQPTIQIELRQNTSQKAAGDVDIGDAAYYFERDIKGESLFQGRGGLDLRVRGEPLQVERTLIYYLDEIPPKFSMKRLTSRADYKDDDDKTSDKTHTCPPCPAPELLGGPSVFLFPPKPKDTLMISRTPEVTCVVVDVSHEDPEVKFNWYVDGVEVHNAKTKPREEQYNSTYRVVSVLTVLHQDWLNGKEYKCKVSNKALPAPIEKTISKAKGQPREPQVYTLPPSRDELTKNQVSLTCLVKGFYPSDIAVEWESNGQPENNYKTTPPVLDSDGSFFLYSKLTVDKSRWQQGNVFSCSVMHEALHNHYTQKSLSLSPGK

B1: cAR47A6.4.2, human IgG1 chimeric antibody of anti-Trop-2 mouse monoclonal antibody AR47A6.4.2 (antibody, V domains shown)
VH: QIQLVQSGPELKKPGETVKISCKASGYTFTNYGMNWVKQAPGKGLKWMGWINTKTGEPTYAEEFKGRFAFSLETSASTAYLQINNLKKEDTATYFCGRGGYGSSYWYFDVWGAGTTVTVSS
VL: DIVMTQSHKFMSTSVGDRVSITCKASQDVSIAVAWYQQKPGQSPKVLIYSASYRYTGVPDRFTGSGSGTDFTFTISRVQAEDLAVYYCQQHYITPLTFGAGTKLELK
notes: Variable regions of AR47A6.4.2 with human IgG1 constant region (pKANTEX93), made in CHO/DG44 cells, fucose content 100%
As to B1, the binding result in [1], in assay [2] and in [3] was “binds” each time. Further, the “IC50 (read off the curve)” value is around 4 µg/mL in assay [4] and around 3 µg/mL in assay [5].

B2: cAR47A6.4.2-P, defucosylated human IgG1 chimeric antibody of AR47A6.4.2 (antibody, V domains shown)
VH: B1 VH
VL: B1 VL
modifications: No core fucose on the Fc N-glycan (made in FUT8 knockout CHO/DG44 cells); the letters do not carry this.
A word on the koff: it is a measure of how fast the partners let go of each other. As usually defined, the kon is the rate constant with which the complex forms. In the case of B2, in [6], the Kd turned out to be 1.01 nM, the koff is 0.000218 s⁻¹ and the kon turned out to be 221000 M⁻¹ s⁻¹.

B3: anti-Trop-2 human chimeric antibody KM4590 (antibody, human IgG1, V domains shown)
VH: QVQLQQSGPELVRPGTSVRISCKASGYTFTIYWLGWVKQRPGHGLEWIGNIFPGSAYINYNEKFKGKATLTADTSSSTAYMQLSSLTSEDSAVYFCAREGSNSGYWGQGTTLTVSS
VL: DIVMTQSPSSLSVSAGEKVTMTCKSSQSLLNSGNQQNYLAWYQQKPGQPPKLLIYGASTRESGVPDRFTGSGSGTDFTLTINSVQAEDLAVYYCQSDHIYPYTFGGGTKLEIK
notes: KM4097 variable regions joined to human IgG1 H chain constant region and human kappa L chain constant region (pKANTEX93); made in CHO/DG44 cells, fucose content 100%
On to B3, for which the binding result in assay [7] is on record as “binds”.

B4: anti-Trop-2 human chimeric antibody KM4591 (antibody, human IgG1, V domains shown)
VH: B3 VH
VL: B3 VL
notes: Same polypeptides as KM4590 (human IgG1, kappa), made in FUT8 knockout CHO/DG44 cells, fucose content 0%
Consider B4, for which, in [6], the Kd turned out to be 0.143 nM, the koff worked out at 5.8e-05 s⁻¹ and the kon was 416000 M⁻¹ s⁻¹. Further, in assay [8], the Kd is 0.36 nM, the koff stood at 0.000113 s⁻¹ and the on-rate (kon) stood at 323000 M⁻¹ s⁻¹.

B5: KM4097 humanized antibody HV10LV4 (antibody, V domains shown)
VH: QVQLVQSGPEVVKPGASVKISCKASGYTFTIYWLGWVKQAPGQGLEWIGNIFPGSAYINYNEKFKGKATLTADTSTSTAYMELSSLRSEDTAVYFCAREGSNSGYWGQGTLLTVSS
VL: B3 VL with S9D, S12A, K18R, T22N, T69S, N82S, L89V, G106Q
notes: Expressed from pKANTEX93 (human constant regions) in FUT8 knockout CHO cells; no fucose attached
For the molecule B5, in [9], the Kd is at most 0.5 nM. In addition, in [8], the Kd worked out at 0.37 nM, the off-rate (koff) stood at 0.000116 s⁻¹ and the kon is 342000 M⁻¹ s⁻¹.

B6: anti-Trop-2 mouse monoclonal antibody KM4097 (antibody, V domains shown)
VH: B3 VH
VL: B3 VL
Consider B6, for which, in assay [10], the Kd turned out to be 0.261 nM, the koff was 0.000101 s⁻¹ and the kon was 389000 M⁻¹ s⁻¹.

B7: KM4097 humanized antibody HV0LV0 (antibody, V domains shown)
VH: B5 VH with P9A, V12K, I20V, K38R, I48M, K67R, A68V, L70I, F95Y, L112V
VL: DIVMTQSPDSLAVSLGERATINCKSSQSLLNSGNQQNYLAWYQQKPGQPPKLLIYGASTRESGVPDRFSGSGSGTDFTLTISSLQAEDVAVYYCQSDHIYPYTFGQGTKLEIK
notes: as for B5
With B7, in assay [9], the Kd was at most 1 nM. Moreover, in [8], the Kd stood at 0.53 nM, the off-rate constant (koff) came to 0.00016 s⁻¹ and the kon is 330000 M⁻¹ s⁻¹.

B8: KM4097 humanized antibody HV4LV0 (antibody, V domains shown)
VH: B5 VH with V12K, I20V, K67R, A68V, L70I, L112V
VL: B7 VL
notes: as for B5
As to B8, the Kd in [9] is at most 0.5 nM. Moreover, in assay [8], the Kd was determined as 0.42 nM, the koff stood at 0.000126 s⁻¹ and the kon is 335000 M⁻¹ s⁻¹.

B9: KM4097 humanized antibody HV10LV2 (antibody, V domains shown)
VH: B5 VH
VL: B7 VL with A19V, L84V
notes: as for B5
As to B9, the Kd in assay [9] was at most 0.5 nM. In addition, in assay [8], the Kd turned out to be 0.4 nM, the koff was found to be 0.000148 s⁻¹ and the kon came to 375000 M⁻¹ s⁻¹.

B10: KM4097 humanized antibody HV3aLV0 (antibody, V domains shown)
VH: B5 VH with V12K, I20V, K38R, I48M, A68V, L70I, L112V
VL: B7 VL
notes: as for B5
With B10, in assay [9], the Kd is at most 0.5 nM. Further, in assay [8], the Kd is 0.3 nM, the koff came to 0.00016 s⁻¹ and the kon turned out to be 506000 M⁻¹ s⁻¹.

B11: KM4097 humanized antibody HV5LV0 (antibody, V domains shown)
VH: B5 VH with P9A, V12K, I20V, L70I, L112V
VL: B7 VL
notes: as for B5
B11: in [9], the Kd is at most 0.5 nM. In assay [8], the Kd came to 0.49 nM, the koff is 0.00019 s⁻¹ and the kon stood at 383000 M⁻¹ s⁻¹.
